{"source": "paper PMC10433801"}
{"molecular_target": "CsrA-H6 (Salmonella Typhimurium / Escherichia coli (sequences stated identical)) (UniProt P69913)", "sequence (P69913 whole entry)": "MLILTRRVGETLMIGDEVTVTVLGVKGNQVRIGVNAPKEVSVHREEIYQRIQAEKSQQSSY", "assay": "EMSA", "conditions": "RNA EMSA: 10 mM Tris-HCl pH 7.5, 10 mM MgCl2, 100 mM KCl, 200 ng/uL yeast RNA, 0.2 mg/mL BSA, 7.5% glycerol, 20 mM DTT, 37 C 30 min; DNA EMSA: 10 mM Tris pH …", "units": {"Kd": "nM"}}
{"substance": "GGGACUUUUUAUCAGGGCCAGGAUAAUGGUAAUAAAAAGUGAAUGUAAAUAAUGUGUUUUGUUUAUAACAAUAAAUUAACUGAGGGGUUUUAUCAUG [pocR RNA (-91 to +3)]", "Kd": 7.4}
{"substance": "GGGACAAAAAAUUGCCACGAUGACGGCAGUUUCAGUGGAGACGGUGAGCAAUGAAUAAAGAACGCAUUAUUCAGGAAUUUGUGCCGGGCAAACAGGUC [eutS RNA (-47 to +48)]", "Kd": 5.7}
{"substance": "GGGUUCUUAUAGUCCCAACUAUCGGAACACUCCAUGCGAGGUCUUUAUGCAACAAGAAGCACUAGGAAUGGUAGAAACCAAAGG [pduA RNA (-44 to +38)]", "Kd": 31}
{"tested_on": "CsrA-H6 (Salmonella Typhimurium / Escherichia coli (sequences stated identical))", "assay": "EMSA", "conditions": "10 mM MgCl2; yeast RNA 200 ng/uL; apparent Kd; RNA EMSA: 10 mM Tris-HCl pH 7.5, 10 mM MgCl2, 100 mM KCl, 200 ng/uL yeast RNA, 0.2 mg/mL BSA, 7.5% glycerol, 20 mM DTT, 37 C 30 min; DNA EMSA: 10 mM Tris pH …", "units": {"Kd": "nM"}}
{"substance": "pduA RNA (-44 to +38)", "Kd": 31}
{"substance": "pocR RNA (-91 to +3)", "Kd": 7.4}
{"substance": "eutS RNA (-47 to +48)", "Kd": 5.7}
